test: soluble on expression in E. coli; label from the status in PepcDB or PDB records

Sequence	soluble on expression in E. coli
PKYTIVDKETCIACGACGAAAPDIYDYDEDGIAYVTLDDNQGIVEVPDILIDDMMDAFEGCPTDSIKVADEPFDGDPNKFE	soluble
SQEIVAGELERCFLAMPESVLPIVTMEERNDLCRRAGHLSGFTHTASLESSLGGTVTFLLNRNFIRIQTSTVGEVFMRILPFSDSSSVICVVTTVLHPVADSRIDFYTTEWKPLKTDRFWQQPRIEDFFLPHTDRQSYAYQAIYASLTPSYMQVSLSEESDTLSIRQTVTETLAEEEKPLAAIFLSPEPLVYRWQSGRFVRQVR	soluble
GPVWRKHYITYRINNYTPDMNREDVDYAIRKAFQVWSNVTPLKFSKINTGMADILVVFARGAHGDDHAFDGKGGILAHAFGPGSGIGGDAHFDEDEFWTTHSGGTNLFLTAVHEIGHSLGLGHSSDPKAVMFPTYKYVDINTFRLSADDIRGIQSLYGDPKENQRLPNPDNSEPALCDPNLSFDAVTTVGNKIFFFKDRFFWLKVSERPKTSVNLISSLWPTLPSGIEAAYEIEARNQVFLFKDDKYWLISNLRPEPNYPKSIHSFGFPNFVKKIDAAVFNPRFYRTYFFVDNQYWRYDERRQMMDPGYPKLITKNFQGIGPKIDAVFYSKNKYYYFFQGSNQFEYDFLLQRITKTLKSNSWFGC	soluble
MGSDKIHHHHHHMTSAIDKNSQLEAQAWELLEESVIFYQGKPIGTVAAHDPESDALNYDQCFLRDFVPSALVFLMYGKAEIVRNFLVETLKLQSHEKQIDCFEPGAGLMPASFKVHFNGNEEFLVADFGEQAIARVPPIDSCMWWILLLRAYEKATGDLSLARQPDFQAGIKLILDLCLVHRFSMYPTMLVPDGAFMIDRRMGVYEHPLEIQVLFYASLRAASELLLPDGDGDSYLGKVNRRLGSLKYHIRNYYWLDLKRLGEIYRYKDNEFGKEIVNKFNINSESIPSWLTEWLPETGGYLAGNLGPGRIDFRFFALGNLMAILTSLASEKESQSIMNLFVQRWQDLIGYMPVKICFPALEGLEWRIVTGCDSKNRAWSYHNGGNWPVLLWLFASAAQKAGRTELAQAAIAIAERRLLKDKFPEYYDGNNGRLIGKEARINQTWSIAGLLTAKKFVENPDYLELISFAEGLEVPGCSL	not soluble
MGSDKIHHHHHHMSTVDPVEQLLANGLKNLWYPICPVGFIEDKPVSLRRLGYKLAVWRDTDGTLHALEDHCPHRGAPLSRGVNLGDRLQCPYHGVEVRCDGVTARVPGSPGCKLEGSQATRFFHITEAAGAVWLYNSAGNVEEAPPLVLPEQLTDPEFSHFLCYTEWRGDYRYVLDNVMDPMHGTYLHKQSHSMSEGESQARFVTRDTDTGFIFEKDGQRGVNFDWTEWADTGMHWMRLEIPYPKTGGPGGNFHIVGSYTPIARDLCAVFHWRCRPLTGWQRDTWRFLYRNRLEARHWAVLEQDREMLEFMEPDANQRENLYQHDLGLVRLRRHLKNLAKAQLELIEARQL	not soluble
MLTESTDKKAVNQVIHYVYEGGGEAATDHNATVDFSRTITTDRVTNDKTYGDWTADNGDSFASVTSPVIDGYTADQLKVSEMTGITADTEDISVTVTYTRNQGTIDITYIDQTTGQTLSKLEHHHHHH	not soluble
MQKFDTRTFQGLILTLQDYWARQGCTIVQPLDMEVGAGTSHPMTCLRELGPEPMAAAYVQPSRRPTDGRYGENPNRLQHYYQFQVVIKPSPDNIQELYLGSLKELGMDPTIHDIRFVEDNWENPTLGAWGLGWEVWLNGMEVTQFTYFQQVGGLECKPVTGEITYGLERLAMYIQGVDSVYDLVWSDGPLGKTTYGDVFHQNEVEQSTYNFEYADVDFLFTCFEQYEKEAQQLLALENPLPLPAYERILKAAHSFNLLDARKAISVTERQRYILRIRTLTKAVAEAYYASREALGFPMCNKDKLEHHHHHH	not soluble
MAHHHHHHMYLHVMKVACTPDERHCENSVNPSSSSTLPSATTSSSCPVEHGVPDEESRFTRLYEAAVENESALRVGNYTRRLLFDEFCATSDATRQASQPTCRMLRQRHPALRSLSLSVEGMHSAGADRTSATQLPADSTMSAAESLQAYLSPALSAWRCASQEPFASSAQVAAAAPLPTSAVASDVRPRSPLPLHIDESDAPVDEGAHGEGLEALYMDVFDQEGPANNHEVAVNAAYTREREAADRAALLSAQQATMAGCPCGFTARGSTPSADVSLSNASSLLPEEDDISLVLQPVLGGVAQRRGRGIRVHLESEPSVTTSSSMVDASFLQAGRETTTLTCAVCELSGVVGDPHRTCIDAVELQEEDELHPCGTCGALVHSYCACPGTTADTHYCCNPCCPGGGTV	not soluble
MGSDKIHHHHHHMTRVVIIGGSGHVGTYLVPRLVEAGYEVVNVSRGQRAAYTLNAAWKSVEPVVIDRDTEEKAGTFGEKVRALKADIVVDMISFTLDSTKQIVGALRGEVQHFLHCGTIWVYGHNTAIPATEDQPKNPFGSYGTQKAEIESWLLNEARRNGFPATVFRPGHIVGPGWEPLNPAGHFDVGVFSQIARGEPLVLPNLGNETVHHVHADDVAQMVMRAIVSWSNAVGEAFNTVSPQAINLRGYAEALYNWFGHAPRLSYEPFDTWKGKQTEENWRATWEHIARSPSHSIAKARNLLGYDPRYSSLQAVYESVEWLVANGKLSR	not soluble
VTGAIDPNLFTDAVLQVAAAAGRDETLPMLTGIHMEIDGENVTLTATDRFRLALRRFTWSPANPEAKAKLLIPAKNLSDNARSLDSGSTEPVEIAVGTGENIGAEGLFGIHIDNRQTTTRMLDADFPNVSPLL	not soluble
MAVASTSTSDGMLTLDLIQEEDPSPEEPTSCAESFRVDLDKSVAQLAGSRRRADSDRIQPSADRASSLSRPWEKTDKGATYTPQAPKKLTPTEKGRCASLEEILSQRDAASARTLQLRAEEPPTPALPNPGQLSRIQDLVARKLEETQELLAEVQGLGDGKRKAKDPPRSPPDSESEQLLLETERLLGEASSNWSQAKRVLQEVRELRDLYRQMDLQTPDSHLRQTTPHSQYRKSLM	soluble
MILVTGATGVVGRQVAHTLARSGRVRLLVRDPARLTVEGPGVEVATGAYEDHASLLRALKGVEAAFLVTVDPGGQEDGRFLRAAVAADVRHVVKLSSYAAGEDDADDLITRWQRKCEETLRSSGLDWTLLRPRAFMSNTLSWADSIRREGTVRALYPGSENACVDPRDIAEVAVTALTSPGHEGRVYPLTGPEAVSAEQQTRHLAAVLGRPLVCRELTPQQAAARWARRYPPKVVHALVLSAQRQLLGRKTTTDPTFARVTGHPPRSYRQWATDHRNAFA	not soluble
MESKSVDTRSIYRELGATLSYNMRLGNGMEIEPWLKAAVRKEFVDDNRVKVNSDGNFVNDLSGRRGIYQAGIKASFSSTLSGHLGVGYSRGAGVESPWNAVVGVNWSF	not soluble
MNNKTEQGNDAVSGQPSIKGQPVLGKDDAPVTVVEFGDYKCPSCKVFNSDIFPKIQKDFIDKGDVKFSFVNVMFHGKGSRLAALASEEVWKEDPDSFWDFHEKLFEKQPDTEQEWVTPGLLGDLAKSTTKIKPETLKENLDKETFASQVEKDSDLNQKMNIQATPTIYVNDKVIKNFADYDEIKETIEKELKGKLEHHHHHH	soluble
AIAPSRQLEDPGAGTPSPVRLHALAGFQQRALCHALTFPSLQRLVYSMCSLCQEENEDMVPDALQQNPGAFRLAPALPARPHRGLSTFPGAEHCLRASPKTTLSGGFFVAVIERVEMPT	soluble
GPGSMEARGNVDGEKFRSINTLRTRFPALTVSDARALLERHNWNVAIAGAEAERGERQRTKADSANYFVGGGDKGSGQQVMAPSGESVSDRSGEIASGSGVHSMIDRIFRKAEVEGAKASGGDGGSGVEDNEPRAFYGRGQRLGYTANPSPYVASTLRAERSVCITVYRDGFEVDSNGFVPLNSDEGRQFVEAMDKGYVPPSLAAKYPNTDLTVNLRDCLQVDYVPPSYIAFQGDGHRLAAPSSTAASSAAPANAQASPATAGRSGTPAYDPSRTVEVRSDEATSFVVLLNTRGERRQVQVNPERHTVDDLYSLAHAYQPELQNFILVERGMPPRRLEASTRSQTIAQAKLSRAVVALQQM	soluble
MDILKQLQSSTNLTPNVLARLAIALSLLSKEPIESFDSDTNGLEFNRNTLTGEYDFVYKALIAQQLGRPITDDEYFPSLIKKHLDRGAKWLENEYKYAGNYEKLIKGLAHFELEMIR	not soluble
RDTCVTLLLDNSGSMRGRPISIAAICADVLARTLERCQVKVEILGFTTRAWKGGQSREKWLAAGRPQQPGRLNDLRHIVYKGADAPWRRARENLGLMMKEGLLKENIDGEALEWAHRRLSSRAETRKILMVISDGAPVDDSTLSVNPASYLEKHLRDVIAMVERKRQVELIAIGIGHDVTRYYARAVTITDVEQLAGAMTEQLASLFDADPKKRIGKRRVA	not soluble
MAHHHHHHMSLLRMCYRSIDITVKSRHARTFLKKRLMEQWAAKCKEPNPEKQRFYMDLAGSFLQALHTERNPKPGKVVNFQLSRQVAYEQKLADREKSAGARRVRRMSKEVKTQDH	not soluble
MGSDKIHHHHHHMTIVYLYTALCTVGGADRSIIQKANYLADEMHQDVFIITDSQKERPPVFPISPRIRHIDIGIDFDRQYHHNLLVRGYYYFTLMHLYRKKLEYWLKTLKPDIVISTLGRELDFLTQLDDGSVKIGESHIAKPYTRNLHLMEQRGFPYKQIARHWRKKQEEAVKKLDALVVLTQHDADNWKEVKKACVIPNFLPFSPEKGSSCLEKRIISIGRYSEQKGYDRLIEAWIKVNRKHPDWHIRIYGEGQDRNSLQELIEKHHIENSFSLCPPTKSIQEKYLESSIYVMSSRFEGLPMALLEAMACGVPCISFDCPYGPAEIITPEEDGILVKNGNTDELADAICRLIEDTDKRIRMGKQAQKNIQRYSREEVMKLWDELFNTLTTARP	not soluble
MQNDVFFDLTQHGFSEDEASQLMVYGQELELPTRHILSHQGEFSSHIYFILEGLCHASYLTEKGKEFSKEFYWEKDWVIGFESVIKGQPSPYLLETLTACHLFCLPIEALHQWRAEKHSIYLKLLETQLMNKENKERFMLLYSPEERYQLFCHHYPDLEQRITDSQIAAYLGITAISLSRIKARLAKDNK	not soluble
MMHQLYPQVAHHYRYELNKDMHIAAAHFIPHEAAGSCANVHGHTYIVNVTIAGDELDESGFLVNFQTLKQLVHRKLDHTLLNDHSDWFDGHDPNRFPTSEVVARTIYETIQRYLDTLPHKPKCLQVFVRETPTSYVVYRPKAGER	soluble
MLRTQFEEELLNLHNQFYEMGMMVSSAVHKSVKAYINHDKKLAQEVIDRDIEINDMEVKLEKKSFEMIALQQPVTTDLRMIITVMKASSDLERMADHAVSIAKSTIRLKGETRIPEIEKEISDMSDYVKKMVDNVLIAYVKTDQKDARMIAQMDDRTNEYFDSIYKHAVEAMKANPETVISGTDYLHVAQYLERIGDYVTNICEWIVYLATGKITELNSNRDEQF	not soluble
GPGSMPHSMDTTLFSDENRIDRGDSLLFHCVQLSQGGTDSHRYFFGCYFPRWRGFYMDEARELPGPLGYNVTRHFPAFPFDVYLKDDGEHFLTDDFQIGSIFTLGGPLNQRDDGQKRYKVVHCDDSQLRTRTGKTLAFIGNNVSGLLQQTHRVSGEAIDALKRIREAYIFNVGNGIPEVGIKAMGRHFRKVGSDGRRWMSYEGIVRFVKDSRNFNATLSFSDTQRTEEDVNTVATCIYNAFPKNEEECIDYDFFMDYVRGPMSQERKDAVWNIFRRMDYDRDGNLNIIDIQACYNTQDHPTCSVDHLFQSDKMLKGFLTIWDENERCGLVPYAEFLDYYNGVSAVLEDDKVFFDVLNNQWKLL	soluble
MRVEDVMVTDVDTIDITASLEDVLRNYVENAKGSSVVVKEGVRVGIVTTWDVLEAIAEGDDLAEVKVWEVMERDLVTISPRATIKEAAEKMVKNVVWRLLVEEDDEIIGVISATDILRAKMAKRY	soluble

From the DeepSol protein solubility set
